Measured values taken from the nanobody polyreactivity screen of Harvey et al. (2022).

Assay: yeast display, Sf9 membrane polyspecificity reagent, FACS + sequencing; frameworks hold sequencing errors
Method in brief: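 Galactose induction of a Saccharomyces cerevisiae BJ5465 synthetic nanobody display library ran 36–48 hours. The cells were then stained for 1 hour at 4 °C with 10% biotinylated, detergent-solubilized Sf9 membrane reagent, pulled down on streptavidin microbeads and FACS-sorted into low and high (top ~1%) gates on expression and reagent-binding fluorescence. Labels for polyreactivity follow the gate of origin.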
For “QVQLVESGGGLVQAGGSLRLSCATSGGTLVANAMGWSSQPPGKESEFVAVITLTAGSTSYADSVKGRLTISRDNAKNTVYLQMNSLKPEDTAVYYCNVDVYNVYNSYPYYYWGQGTQVTVSS”, the “polyreactivity (PSR sort gate)” value was “low polyreactivity”. For “QVQLVESGGGLVQAGGSLRLSCATSGSTSYPYAMGWYRQAPGKERELVAAISTSGSTTYYADSVKVRFTLSRDNAKKTVYLQMNSLKPEDTAVYYCAKGVNFSQYPFSAYGDGGRYDYWGQGTQVTVSS”, the “polyreactivity (PSR sort gate)” value was “low polyreactivity”. In the case of “QVQLVESGGGLVQAGGSLRLSCDASGFIFYEYAMGWSRQAPGKEREFVAAISRSGTRTYYADSVKGRFTISRDNAKNTVYLQMNSLKPEDTAVYYCAAAYYGYARWRGPRKMDYWGQGTQVTVSS”, the “polyreactivity (PSR sort gate)” value is reported as “high polyreactivity”. For “QVQLVESGGGLVQAGGSLRLSCDASGFTFDDYAMGWYRQAHGNEMELVAAISSSRDSTYNADSVKGRFTISRDYEKNTVYLQINSLKPQDTAVYYCAAEYDREEYSGYDYWGEGTQVTVSS”, the “polyreactivity (PSR sort gate)” value was “low polyreactivity”. In the case of “QVQLVESGGGLVQAGGSLRLSCDASGFTFHPYTMGWYRQAPGKERELVASISWGGGSTYYADSVKGRFTISRDNAKNTVYLQMKSLNPEDTAVYYCAKDITYIYYYWGQGSQVTVSS”, the “polyreactivity (PSR sort gate)” value is reported as “low polyreactivity”. For “QVQLVESGGGLVQAGGSLRLSCDASGFTFSAYAMGWYRQAPGKERELVAAISTRGGSTRYADSVKGRFTISRDNAKNTVYLQMNSLKPEDTAVYYCADDTRSFYRYDYWGQGTQVTVSS”, the “polyreactivity (PSR sort gate)” value was “high polyreactivity”. With “QVQLVESGGGLVQAGGSLRLSCDASGFTFVDYTMGWYRQAPGKERELVAAISRRGGSTYYADSVKGRFTISRANSKNTVYLQLNSLQQADTAVYYCNAYRRNYYYYQRHGYWGQCTQVTVSS” the “polyreactivity (PSR sort gate)” value was “high polyreactivity”. For “QVQLVESGGGLVQAGGSLRLSCDASGFTIYHYAIGCYRQATGKERELVDANSRSGGSTYYADSVKGRFTISRDNAQNTFYLQMNSLKPEDTAVYYCAKVLRAKNSFDYWGQGTQVTVSS”, the “polyreactivity (PSR sort gate)” value was “high polyreactivity”. In the case of “QVQLVESGGGLVQAGGSLRLSCDASGNTFGSYAMGWYGQAPGKEREVVASISGGGSTNYADSVKGRFTISRDNATNTVYLQMNSLKPEDTAVYDCAPRYYYRYYWRQGTQVTVSS”, the “polyreactivity (PSR sort gate)” value is reported as “low polyreactivity”. With “QVQLVESGGGLVQAGGSLRLSCDASGRIFASNAMGWYRQAPGKERELVATIRRSGGSTYYADSVKGRFTISRDNAKNTVYLQMNSLKPEDTAVYYCNARMYGGYGWIYDYWRQGTQVTVSS” the “polyreactivity (PSR sort gate)” value was “high polyreactivity”. For “QVQLVESGGGLVQAGGSLRLSCDASGRIFRKNAMGWYRQAPGKERELVAAISGGGGSTYYADSVKGRFTISRDNAKNTVYLQMNSLKPEDTADYYCNAPILPGYWGQGTQVTVSS”, the “polyreactivity (PSR sort gate)” value was “high polyreactivity”. In the case of “QVQLVESGGGLVQAGGSLRLSCDASGRIFRYYAMGWYRQAPGKERELVAAISSDGSTDYADSVKGRFTISRDNAKNTVYLQMNSLKPEDTAVYYCAASVVSYGHDYWGQGTQVTVSS”, the “polyreactivity (PSR sort gate)” value is reported as “low polyreactivity”. With “QVQLVESGGGLVQAGGSLRLSCDASGRIFSRYAIGWYRQAPGKERELVAAITQSGTSTYYADSVKGRFTISRDNAKNTVYLQMNSLNPEDTAVYYCNAYRQYRYDYWGQGTQVTVSS” the “polyreactivity (PSR sort gate)” value was “low polyreactivity”. For “QVQLVESGGGLVQAGGSLRLSCDASGRIFSVYAMGWYRQEPGKEREFVSAISRGGSTNYADSVNGRFTISRDNAKYTVYLQKNSLKPEDTAVYYWGASSLPNYYYRHYYLYEYWGQGTQVTVSS”, the “polyreactivity (PSR sort gate)” value was “low polyreactivity”. In the case of “QVQLVESGGGLVQAGGSLRLSCDASGRIIAFYVMGWYRQAPGKERELVAAITSGGNTNYADSVKGRFTISRDNAKNTVYLQMNSLKPEDTAVYYCAVPVLTYVSDYYWGQGTQVTVSS”, the “polyreactivity (PSR sort gate)” value is reported as “low polyreactivity”. With “QVQLVESGGGLVQAGGSLRLSCDASGRTFAYYAMGWYRQAPGKERELVAAISNGGSTYYADSVKGRFTISRDNAKNTVYLQMNRLKPEDTSVYYCNAYYSDLYDYWGQGTQVTVSS” the “polyreactivity (PSR sort gate)” value was “low polyreactivity”. For “QVQLVESGGGLVQAGGSLRLSCDASGRTFGHKAMAWYRQAPGKEREFVAAITYSCVRTFYADSVKGRFTISRDNAKNTVYLQMNSLKQEDTAVYYCATDWRRDYDFWGQGTQVTVSS”, the “polyreactivity (PSR sort gate)” value was “low polyreactivity”. With “QVQLVESGGGLVQAGGSLRLSCDASGRTFRFNDGGWYRQAPVKERELVAAITYRGGSTYYPDSVKGRFTISRDNAKNTVYLQMNSLKPDDTAVYYCAADYFWSRTQEFDYWGQGSQVTVSS” the “polyreactivity (PSR sort gate)” value was “high polyreactivity”. In the case of “QVQLVESGGGLVQAGGSLRLSCDASGRTFRYYAMGWYRQAPGKEREMVAAITRSGGSTYYADSVKGRFTISRDNAKNTVYLQMNSLKAVDTAVYYCAESRFYSYGIDYDYWGQGTQVTVSS”, the “polyreactivity (PSR sort gate)” value is reported as “high polyreactivity”. In the case of “QVQLVESGGGLVQAGGSLRLSCDASGSIFDPYAMGWYRQAPGKERELVAGISFSGGRTYYADSVKGRFTISRDNAKNTVYLQMNSLKPEDTAVYYCKKLLTQGAYPYYYWGQGTQVTVSS”, the “polyreactivity (PSR sort gate)” value is reported as “high polyreactivity”. In the case of “QVQLVESGGGLVQAGGSLRLSCDASGSIFIANAMGWYRQAPGKEREFVAAINWSRGSTYYADSVKGRFTISRDNAKNTVYLQMNSLKPEDTAVYYCNAASLKFTSPVRFGYWGQGTQVTVSS”, the “polyreactivity (PSR sort gate)” value is reported as “high polyreactivity”. For “QVQLVESGGGLVQAGGSLRLSCDASGSIFKYYAMGWYRQAPGKEREWVAAITIGGNTNYADSVKGRFTISRDNAKNTVYLQMNSLKPEDTAVYYCATGGYYSAIVYGGYDYWGQGTQVTVSS”, the “polyreactivity (PSR sort gate)” value was “low polyreactivity”. With “QVQLVESGGGLVQAGGSLRLSCDASGSIIRYYAMGWYRQAPGKERELVAAINSLGGTTYYADSVKGRFTISRDNAKNTVYLQMNSLKPEDTAVYYCAAGYPPLHTSVQQTAHYGLDYCGQGTQVTVSS” the “polyreactivity (PSR sort gate)” value was “high polyreactivity”. For “QVQLVESGGGLVQAGGSLRLSCDASGSNFFYARGWSRQAPGRERELVADITYTGGSKYADSVKGRFTISRDNAKNTVDLQLNILKPEDTAVSYCAKLDGGLFDYWGQGTQVNVSS”, the “polyreactivity (PSR sort gate)” value was “low polyreactivity”. For “QVQLVESGGGLVQAGGSLRLSCDASGSTFDNYAMGWYRQAPGKERELVAAITTGVTTYYADSVKGRFTISRDNAKNTVYLQMNSLKPEDTAVYYCAADYVSYSQARHEYGYWGQGTQVTVSS”, the “polyreactivity (PSR sort gate)” value was “low polyreactivity”. For “QVQLVESGGGLVQAGGSLRLSCDASGSTFDQYVMGWYRQAPWKERELVAAISVSGGRTYYADSVKGRFTISRDNAKNTVYLQMKSLKPDDTAVYYCNAPKRYSSIGYDYWGQGTQVTVSS”, the “polyreactivity (PSR sort gate)” value was “high polyreactivity”. With “QVQLVESGGGLVQAGGSLRLSCDASGSTFDYYAMGWYRQAPGKERELVAGIDSAGSTNYADSVKGRFTISRDNAKNTVYLQMNSLKTGRYRGLYCNVGKTITTYAFPTFDYCGQGTQVTVSS” the “polyreactivity (PSR sort gate)” value was “low polyreactivity”. In the case of “QVQLVESGGGLVQAGGSLRLSCDASGSTFRGYAMGWYRPAPGKERELVAAITSDGSTNYADSEKGRFTISRDNAKNTVYLQMNSLKPEDTAVYYCNVKATRKWWDRRVYRYNYWGQGTQVTVSS”, the “polyreactivity (PSR sort gate)” value is reported as “high polyreactivity”. With “QVQLVESGGGLVQAGGSLRLSCDASGSTFRGYAMGWYRQAPGKERDLVAAISRYGGSTYYADSVKGRFTISRDNAKTTVYIQMNSLKPEDTAGYYCNARSSKRSSRGYDYWGQGTQVTVSS” the “polyreactivity (PSR sort gate)” value was “high polyreactivity”. For “QVQLVESGGGLVQAGGSLRLSCDASGSTFSPYAMRWYRQAPGKERELVAAINYSSGSTYYADSVKGRFTISRDNAKNTVYLQMNSLKPEDTAVYYCAYGWYAGYPYDYWGQGTQVTVSS”, the “polyreactivity (PSR sort gate)” value was “low polyreactivity”. With “QVQLVESGGGLVQAGGSLRLSCDASGSTFYRNVIGWYRQAPGKERELVAAISSGGSTYYADSVKGRFTISRDNAKNTVYFQMNSLKPEDTAVYYCAARKRYSYDYWGQGTQVTVSS” the “polyreactivity (PSR sort gate)” value was “low polyreactivity”. For “QVQLVESGGGLVQAGGSLRLSCDASGSTFYWYAMGWYRQAPGKERELVAAITYSSGRTYYADSVKGRFTISRDNAKNTVYLQMNSLKPEDTAVYYCGWSALNGYDYWGQGTQVTVSS”, the “polyreactivity (PSR sort gate)” value was “high polyreactivity”.
